This note sets out measurements from patent US20200317768A1 (published 2020).

To fix the notation:
T1: human FcγRIIb constitutively expressed on MDCK cells (human, UniProt P31994 43-310)
T1 sequence (looked up): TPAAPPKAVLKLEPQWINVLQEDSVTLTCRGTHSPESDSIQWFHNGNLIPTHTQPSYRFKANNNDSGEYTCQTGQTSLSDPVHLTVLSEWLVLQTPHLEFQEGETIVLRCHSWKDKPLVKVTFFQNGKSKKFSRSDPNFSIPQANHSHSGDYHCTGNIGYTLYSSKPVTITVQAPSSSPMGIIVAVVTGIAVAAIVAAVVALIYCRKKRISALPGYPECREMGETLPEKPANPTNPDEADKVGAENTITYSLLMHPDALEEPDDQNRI

T2: soluble mouse FcγRII, His-tagged (mouse, UniProt P08101 30-210, limits assumed)
T2 construct: Captured on the chip by an anti-His antibody
T2 sequence (looked up): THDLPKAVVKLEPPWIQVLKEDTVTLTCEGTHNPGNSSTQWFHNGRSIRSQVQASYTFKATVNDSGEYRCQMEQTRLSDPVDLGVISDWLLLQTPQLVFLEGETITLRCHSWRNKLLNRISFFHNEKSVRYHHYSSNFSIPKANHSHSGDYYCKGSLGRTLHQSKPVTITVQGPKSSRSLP

B1: M103205H795-P1375m/M103202L889-SK1 (antibody, human IgG1, kappa)
heavy: not shown
light: DIVMTQSPATLSLSPGERATLSCTSSQSVYHANWLSWFQQKPGQPPKLLIYWASTLAYGVPSRFSGSGSGTDFTLTISSLQPEDAATYYCAGGYGGGRYAFGQGTKVEIKRTVAAPSVFIFPPSDEQLKSGTASVVCLLNNFYPREAKVQWKVDNALQSGNSQESVTEQDSKDSTYSLSSTLTLSKADYEKHKVYACEVTHQGLSSPVTKSFNRGEC
notes: also called MS1032LO06-P1375m
B2: M103205H795-P1529m/M103202L889-SK1 (antibody, human IgG1, kappa)
heavy: not shown
light: B1 light
B3: M103205H795-P1534m/M103202L889-SK1 (antibody, human IgG1, kappa)
heavy: not shown
light: B1 light
B4: M103205H795-P1494m/M103202L889-SK1 (antibody, human IgG1, kappa)
heavy: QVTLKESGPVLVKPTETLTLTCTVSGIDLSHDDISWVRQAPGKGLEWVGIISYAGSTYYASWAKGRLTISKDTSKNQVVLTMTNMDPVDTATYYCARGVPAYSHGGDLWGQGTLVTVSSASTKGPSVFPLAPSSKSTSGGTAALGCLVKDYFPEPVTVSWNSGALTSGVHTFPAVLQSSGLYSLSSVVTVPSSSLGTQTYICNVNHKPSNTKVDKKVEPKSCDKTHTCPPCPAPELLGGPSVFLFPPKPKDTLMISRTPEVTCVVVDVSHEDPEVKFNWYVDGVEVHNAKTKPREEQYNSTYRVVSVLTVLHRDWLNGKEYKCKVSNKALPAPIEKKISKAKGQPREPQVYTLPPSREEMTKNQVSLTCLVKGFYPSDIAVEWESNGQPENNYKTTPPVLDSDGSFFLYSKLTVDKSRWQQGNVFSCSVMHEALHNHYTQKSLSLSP
light: B1 light
B5: M103205H795-P1532m/M103202L889-SK1 (antibody, human IgG1, kappa)
heavy: not shown
light: B1 light
B6: M103205H795-P1524m/M103202L889-SK1 (antibody, human IgG1, kappa)
heavy: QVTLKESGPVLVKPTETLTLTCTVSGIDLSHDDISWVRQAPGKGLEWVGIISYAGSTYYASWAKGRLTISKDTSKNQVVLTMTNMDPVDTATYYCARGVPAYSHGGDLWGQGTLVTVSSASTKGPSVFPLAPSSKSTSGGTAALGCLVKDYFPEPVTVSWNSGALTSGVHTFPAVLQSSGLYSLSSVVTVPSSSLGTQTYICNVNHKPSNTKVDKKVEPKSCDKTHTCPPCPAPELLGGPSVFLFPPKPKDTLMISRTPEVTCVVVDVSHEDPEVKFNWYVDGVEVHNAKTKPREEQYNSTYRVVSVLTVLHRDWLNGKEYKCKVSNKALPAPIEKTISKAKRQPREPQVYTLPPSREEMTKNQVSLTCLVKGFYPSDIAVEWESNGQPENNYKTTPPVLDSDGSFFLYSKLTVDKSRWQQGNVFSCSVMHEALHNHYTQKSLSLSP
light: B1 light
B7: M103205H795-P1493m/M103202L889-SK1 (antibody, human IgG1, kappa)
heavy: not shown
light: B1 light
B8: M103205H795-P1485m/M103202L889-SK1 (antibody, human IgG1, kappa)
heavy: not shown
light: B1 light
B9: M103205H795-P1383m/M103202L889-SK1 (antibody, human IgG1, kappa)
heavy: QVTLKESGPVLVKPTETLTLTCTVSGIDLSHDDISWVRQAPGKGLEWVGIISYAGSTYYASWAKGRLTISKDTSKNQVVLTMTNMDPVDTATYYCARGVPAYSHGGDLWGQGTLVTVSSASTKGPSVFPLAPSSKSTSGGTAALGCLVKDYFPEPVTVSWNSGALTSGVHTFPAVLQSSGLYSLSSVVTVPSSSLGTQTYICNVNHKPSNTKVDKKVEPKSCDKTHTCPPCPAPELLGGPSVFLFPPKPKDTLMISRTPEVTCVVVDVSHEDPEVKFNWYVDGVEVHNAKTKPREEQYNSTYRVVSVLTVLHRDWLNGKEYKCKVSNKALPAPIEKTISKAKGQPREPQVYTLPPSREEMTKNQVSLTCLVKGFYPSDIAVEWESNGQPENNYKTTPPVLDRDGSFFLYSKLTVKKSRWQQGNVFSCSVMHEALHNHYTQKSLSLSP
light: B1 light
notes: also called MS1032LO06-P1383m
B10: M103205H795-P1525m/M103202L889-SK1 (antibody, human IgG1, kappa)
heavy: not shown
light: B1 light
B11: M103205H795-P1531m/M103202L889-SK1 (antibody, human IgG1, kappa)
heavy: not shown
light: B1 light
B12: M103205H795-P1489m/M103202L889-SK1 (antibody, human IgG1, kappa)
heavy: not shown
light: B1 light
B13: M103205H795-P1378m/M103202L889-SK1 (antibody, human IgG1, kappa)
heavy: not shown
light: B1 light
notes: also called MS1032LO06-P1378m
B14: M103205H795-P1528m/M103202L889-SK1 (antibody, human IgG1, kappa)
heavy: not shown
light: B1 light
B15: M103205H795-P1486m/M103202L889-SK1 (antibody, human IgG1, kappa)
heavy: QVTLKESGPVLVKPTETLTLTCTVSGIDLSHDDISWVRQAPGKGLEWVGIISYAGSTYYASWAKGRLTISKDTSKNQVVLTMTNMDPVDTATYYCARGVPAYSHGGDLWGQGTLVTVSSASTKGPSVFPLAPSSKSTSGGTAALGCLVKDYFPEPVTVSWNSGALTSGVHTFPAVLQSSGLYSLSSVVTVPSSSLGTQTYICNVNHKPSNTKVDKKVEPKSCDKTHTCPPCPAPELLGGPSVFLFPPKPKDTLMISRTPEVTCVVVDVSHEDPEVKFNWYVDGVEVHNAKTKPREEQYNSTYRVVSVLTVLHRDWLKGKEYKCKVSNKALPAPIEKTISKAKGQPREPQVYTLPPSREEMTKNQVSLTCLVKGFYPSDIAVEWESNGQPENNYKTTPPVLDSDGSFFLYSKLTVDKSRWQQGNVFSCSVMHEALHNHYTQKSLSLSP
light: B1 light
B16: M103205H795-P1526m/M103202L889-SK1 (antibody, human IgG1, kappa)
heavy: not shown
light: B1 light
B17: M103205H795-P1501m/M103202L889-SK1 (antibody, human IgG1, kappa)
heavy: not shown
light: B1 light
B18: M103205H795-P1487m/M103202L889-SK1 (antibody, human IgG1, kappa)
heavy: not shown
light: B1 light
B19: M103205H795-P1495m/M103202L889-SK1 (antibody, human IgG1, kappa)
heavy: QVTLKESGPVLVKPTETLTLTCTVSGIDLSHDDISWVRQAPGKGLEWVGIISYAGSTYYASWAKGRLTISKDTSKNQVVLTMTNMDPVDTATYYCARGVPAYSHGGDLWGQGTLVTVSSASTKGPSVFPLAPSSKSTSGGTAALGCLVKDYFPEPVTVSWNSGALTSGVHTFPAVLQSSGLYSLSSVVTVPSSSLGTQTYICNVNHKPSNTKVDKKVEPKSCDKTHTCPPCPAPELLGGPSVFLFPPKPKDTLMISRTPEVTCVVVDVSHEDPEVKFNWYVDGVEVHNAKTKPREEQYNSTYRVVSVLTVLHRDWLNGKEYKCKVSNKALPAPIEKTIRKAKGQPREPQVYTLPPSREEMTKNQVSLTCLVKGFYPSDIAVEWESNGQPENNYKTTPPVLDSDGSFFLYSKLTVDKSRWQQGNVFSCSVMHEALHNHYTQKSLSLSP
light: B1 light
B20: M103205H795-P1533m/M103202L889-SK1 (antibody, human IgG1, kappa)
heavy: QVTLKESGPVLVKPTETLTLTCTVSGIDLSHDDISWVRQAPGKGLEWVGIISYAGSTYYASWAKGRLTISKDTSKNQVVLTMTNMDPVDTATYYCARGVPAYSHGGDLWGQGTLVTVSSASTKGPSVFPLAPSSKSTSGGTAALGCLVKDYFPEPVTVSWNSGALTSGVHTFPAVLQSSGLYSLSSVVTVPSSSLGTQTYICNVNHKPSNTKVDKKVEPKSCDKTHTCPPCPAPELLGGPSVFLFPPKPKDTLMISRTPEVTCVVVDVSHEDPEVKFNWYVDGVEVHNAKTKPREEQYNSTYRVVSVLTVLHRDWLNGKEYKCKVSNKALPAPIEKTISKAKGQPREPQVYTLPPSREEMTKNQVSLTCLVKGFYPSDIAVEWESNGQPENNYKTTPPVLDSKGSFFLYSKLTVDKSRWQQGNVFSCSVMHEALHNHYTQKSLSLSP
light: B1 light
B21: M103205H795-P1522m/M103202L889-SK1 (antibody, human IgG1, kappa)
heavy: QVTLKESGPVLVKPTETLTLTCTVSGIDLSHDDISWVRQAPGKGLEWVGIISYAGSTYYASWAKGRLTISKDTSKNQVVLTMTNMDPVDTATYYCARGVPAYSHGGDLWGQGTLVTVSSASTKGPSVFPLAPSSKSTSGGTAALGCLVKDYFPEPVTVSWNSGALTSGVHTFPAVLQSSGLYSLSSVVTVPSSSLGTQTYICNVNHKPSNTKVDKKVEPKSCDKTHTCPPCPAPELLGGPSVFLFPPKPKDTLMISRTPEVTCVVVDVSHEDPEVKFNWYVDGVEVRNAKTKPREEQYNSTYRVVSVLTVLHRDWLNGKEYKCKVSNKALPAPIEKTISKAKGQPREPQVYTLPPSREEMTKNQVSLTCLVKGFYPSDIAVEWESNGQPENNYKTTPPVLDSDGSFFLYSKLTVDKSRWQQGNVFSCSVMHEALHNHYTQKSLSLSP
light: B1 light
B22: M103205H795-P1496m/M103202L889-SK1 (antibody, human IgG1, kappa)
heavy: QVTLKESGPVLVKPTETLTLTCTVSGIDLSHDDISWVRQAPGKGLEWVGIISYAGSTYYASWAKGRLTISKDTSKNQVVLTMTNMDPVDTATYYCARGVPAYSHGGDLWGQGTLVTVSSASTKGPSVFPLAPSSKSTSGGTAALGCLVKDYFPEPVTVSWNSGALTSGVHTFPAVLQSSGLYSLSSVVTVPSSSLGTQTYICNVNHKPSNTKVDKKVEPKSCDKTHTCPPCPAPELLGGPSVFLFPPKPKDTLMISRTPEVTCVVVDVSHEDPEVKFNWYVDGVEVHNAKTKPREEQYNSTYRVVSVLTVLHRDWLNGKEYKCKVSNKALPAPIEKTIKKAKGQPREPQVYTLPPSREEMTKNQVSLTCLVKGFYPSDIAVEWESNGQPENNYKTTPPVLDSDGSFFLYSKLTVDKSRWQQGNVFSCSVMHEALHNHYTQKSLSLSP
light: B1 light
B23: M103205H795-P1488m/M103202L889-SK1 (antibody, human IgG1, kappa)
heavy: not shown
light: B1 light
B24: M103205H795-P1490m/M103202L889-SK1 (antibody, human IgG1, kappa)
heavy: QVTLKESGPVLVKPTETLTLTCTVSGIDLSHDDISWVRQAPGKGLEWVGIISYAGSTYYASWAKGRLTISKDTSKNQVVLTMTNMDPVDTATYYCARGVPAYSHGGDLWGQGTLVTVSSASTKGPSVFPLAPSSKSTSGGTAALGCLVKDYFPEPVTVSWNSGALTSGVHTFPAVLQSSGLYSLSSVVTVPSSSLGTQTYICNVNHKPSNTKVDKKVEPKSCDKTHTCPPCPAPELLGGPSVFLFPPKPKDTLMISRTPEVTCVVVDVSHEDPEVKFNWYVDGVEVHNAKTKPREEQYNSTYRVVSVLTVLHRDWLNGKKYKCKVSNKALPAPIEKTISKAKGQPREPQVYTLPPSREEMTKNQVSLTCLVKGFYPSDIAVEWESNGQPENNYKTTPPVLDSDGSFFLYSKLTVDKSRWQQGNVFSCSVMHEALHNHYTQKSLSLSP
light: B1 light
B25: M103205H795-P1492m/M103202L889-SK1 (antibody, human IgG1, kappa)
heavy: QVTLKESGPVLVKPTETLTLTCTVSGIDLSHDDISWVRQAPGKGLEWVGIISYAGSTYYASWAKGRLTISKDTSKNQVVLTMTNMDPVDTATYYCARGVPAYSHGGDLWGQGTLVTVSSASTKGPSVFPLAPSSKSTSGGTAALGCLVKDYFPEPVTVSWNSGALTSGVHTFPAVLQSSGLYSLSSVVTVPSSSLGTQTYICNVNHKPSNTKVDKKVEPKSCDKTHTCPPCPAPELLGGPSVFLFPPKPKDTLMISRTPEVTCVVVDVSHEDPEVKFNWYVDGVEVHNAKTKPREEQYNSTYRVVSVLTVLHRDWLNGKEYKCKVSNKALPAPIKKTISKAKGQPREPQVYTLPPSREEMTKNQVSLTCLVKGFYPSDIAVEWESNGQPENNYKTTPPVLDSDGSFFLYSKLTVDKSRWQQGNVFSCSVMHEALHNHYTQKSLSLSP
light: B1 light
B26: M103205H795-P1499m/M103202L889-SK1 (antibody, human IgG1, kappa)
heavy: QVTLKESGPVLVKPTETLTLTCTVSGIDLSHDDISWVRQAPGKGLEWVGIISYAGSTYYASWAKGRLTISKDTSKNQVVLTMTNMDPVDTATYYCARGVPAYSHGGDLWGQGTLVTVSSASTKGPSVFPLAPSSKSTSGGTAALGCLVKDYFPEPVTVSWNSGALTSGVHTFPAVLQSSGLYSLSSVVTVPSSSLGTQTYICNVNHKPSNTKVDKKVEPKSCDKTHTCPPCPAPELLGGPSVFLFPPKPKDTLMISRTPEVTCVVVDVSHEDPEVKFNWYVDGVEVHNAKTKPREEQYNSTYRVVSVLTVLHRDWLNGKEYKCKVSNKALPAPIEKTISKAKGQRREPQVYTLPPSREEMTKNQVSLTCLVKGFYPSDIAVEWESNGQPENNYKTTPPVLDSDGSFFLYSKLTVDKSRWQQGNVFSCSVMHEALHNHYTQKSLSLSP
light: B1 light
notes: also called MS1032LO06-P1499m
B27: M103205H795-P1530m/M103202L889-SK1 (antibody, human IgG1, kappa)
heavy: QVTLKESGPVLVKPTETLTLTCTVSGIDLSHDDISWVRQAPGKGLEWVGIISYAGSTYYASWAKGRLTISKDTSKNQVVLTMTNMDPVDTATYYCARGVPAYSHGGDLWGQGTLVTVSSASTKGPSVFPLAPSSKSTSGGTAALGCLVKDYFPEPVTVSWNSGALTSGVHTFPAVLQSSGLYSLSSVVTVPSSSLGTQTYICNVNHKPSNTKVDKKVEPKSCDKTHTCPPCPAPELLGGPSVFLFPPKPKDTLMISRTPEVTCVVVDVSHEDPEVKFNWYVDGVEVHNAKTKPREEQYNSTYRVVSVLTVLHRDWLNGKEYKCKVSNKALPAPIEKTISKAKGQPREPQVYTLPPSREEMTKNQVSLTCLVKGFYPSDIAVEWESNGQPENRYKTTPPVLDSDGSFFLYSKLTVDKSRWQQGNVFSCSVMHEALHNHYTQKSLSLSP
light: B1 light
B28: M103205H795-P1498m/M103202L889-SK1 (antibody, human IgG1, kappa)
heavy: not shown
light: B1 light
B29: M103205H795-P1523m/M103202L889-SK1 (antibody, human IgG1, kappa)
heavy: not shown
light: B1 light
B30: M103205H795-P1527m/M103202L889-SK1 (antibody, human IgG1, kappa)
heavy: not shown
light: B1 light
B31: M103205H795-P1497m/M103202L889-SK1 (antibody, human IgG1, kappa)
heavy: not shown
light: B1 light
B32: M103205H795-P1500m/M103202L889-SK1 (antibody, human IgG1, kappa)
heavy: not shown
light: B1 light
B33: M103205H795-P1491m/M103202L889-SK1 (antibody, human IgG1, kappa)
heavy: not shown
light: B1 light
B34: M103205H795-P1484m/M103202L889-SK1 (antibody, human IgG1, kappa)
heavy: not shown
light: B1 light

The target of one test is T1, human FcγRIIb constitutively expressed …. As to the kind of experiment: cell-based or functional assay.
As to B1, the celluar uptake is 3.43 relative to SG1 (=1.00).

On to B2, for which the celluar uptake is 2.86 relative to SG1 (=1.00).

Regarding B3, the celluar uptake was 3.12 relative to SG1 (=1.00).

Regarding B4, the celluar uptake is 1.12 relative to SG1 (=1.00).

Consider B5, for which the celluar uptake is 4.16 relative to SG1 (=1.00).

Regarding B6, the celluar uptake is 3.66 relative to SG1 (=1.00).

As for B7, the celluar uptake was 0.99 relative to SG1 (=1.00).

Turning to B8, the celluar uptake is 1.88 relative to SG1 (=1.00).

For the molecule B9, the celluar uptake is 5.68 relative to SG1 (=1.00).

Take B10: the celluar uptake is 3.55 relative to SG1 (=1.00).

Take B11: the celluar uptake is 2.35 relative to SG1 (=1.00).

For the molecule B12, the celluar uptake is 1.68 relative to SG1 (=1.00).

As to B13, the celluar uptake is 3.86 relative to SG1 (=1.00).

B14: the celluar uptake is 3.02 relative to SG1 (=1.00).

For the molecule B15, the celluar uptake is 1.52 relative to SG1 (=1.00).

With B16, the celluar uptake was 1.2 relative to SG1 (=1.00).

For B17, the celluar uptake was 2.4 relative to SG1 (=1.00).

As to B18, the celluar uptake was 1.23 relative to SG1 (=1.00).

Take B19: the celluar uptake is 1.76 relative to SG1 (=1.00).

B20: the celluar uptake is 3.52 relative to SG1 (=1.00).

Regarding B21, the celluar uptake is 2.13 relative to SG1 (=1.00).

For the molecule B22, the celluar uptake is 1.69 relative to SG1 (=1.00).

On to B23, for which the celluar uptake was 1.45 relative to SG1 (=1.00).

Consider B24, for which the celluar uptake was 1.33 relative to SG1 (=1.00).

For the molecule B25, the celluar uptake was 1.13 relative to SG1 (=1.00).

Consider B26, for which the celluar uptake was 3.61 relative to SG1 (=1.00).

As for B27, the celluar uptake was 3.12 relative to SG1 (=1.00).

Regarding B28, the celluar uptake is 1.56 relative to SG1 (=1.00).

For B29, the celluar uptake was 1.91 relative to SG1 (=1.00).

In the case of B30, the celluar uptake is 0.92 relative to SG1 (=1.00).

For the molecule B31, the celluar uptake is 1.38 relative to SG1 (=1.00).

B32: the celluar uptake was 1.82 relative to SG1 (=1.00).

Turning to B33, the celluar uptake is 1.37 relative to SG1 (=1.00).

As for B34, the celluar uptake was 0 relative to SG1 (=1.00).

Another test deals with T2, soluble mouse FcγRII, His-tagged. The test is described as follows: SPR, mouse FcgRII-His captured, antigen-antibody complex injected, pH7.4, 25C. The protocol:
Regarding the produced Fc region variant-containing antibodies, binding assays between soluble mouse FcγRII and antigen-antibody complexes were performed using BIACORE® T200 (GE Healthcare). Soluble mouse FcγRII was produced in the form of a His-tagged molecule by a method known to those skilled in the art. An appropriate amount of an anti-His antibody was fixed onto Sensor chip CM5 (GE Healthcare) by the amine coupling method using a His capture kit (GE Healthcare) to capture mouse FcγRII. Next, an antibody-antigen complex and a running buffer (as a reference solution) were injected, and interaction was allowed to take place with the mouse FcγRII captured onto the sensor chip. 20 mM N-(2-Acetamido)-2-aminoethanesulfonic acid, 150 mM NaCl, 1.2 mM CaCl₂, and 0.05% (w/v) TWEEN, 20 at pH7.4 was used as the running buffer, and the respective buffer was also used to dilute the soluble mouse FcγRII. To regenerate the sensor chip, 10 mM glycine-HCl at pH1.5 was used. All measurements were carried out at 25° C. […] To calculate the parameters, the BIACORE® T100 Evaluation Software (GE Healthcare) was used.
Turning to B1, the “biacore IC binding” value was 1.21 relative to SG1 (=1.00).

Turning to B2, the “biacore IC binding” value is 1.08 relative to SG1 (=1.00).

With B3, the “biacore IC binding” value is 1.12 relative to SG1 (=1.00).

On to B4, for which the “biacore IC binding” value was 1.14 relative to SG1 (=1.00).

In the case of B5, the “biacore IC binding” value was 1.23 relative to SG1 (=1.00).

In the case of B6, the “biacore IC binding” value was 1.4 relative to SG1 (=1.00).

Consider B7, for which the “biacore IC binding” value was 1.1 relative to SG1 (=1.00).

For B8, the “biacore IC binding” value is 1.29 relative to SG1 (=1.00).

On to B9, for which the “biacore IC binding” value is 1.41 relative to SG1 (=1.00).

Turning to B10, the “biacore IC binding” value is 1.31 relative to SG1 (=1.00).

In the case of B11, the “biacore IC binding” value was 1.01 relative to SG1 (=1.00).

Turning to B12, the “biacore IC binding” value was 1.24 relative to SG1 (=1.00).

Take B13: the “biacore IC binding” value is 1.23 relative to SG1 (=1.00).

Turning to B14, the “biacore IC binding” value was 1.12 relative to SG1 (=1.00).

Turning to B15, the “biacore IC binding” value is 1.2 relative to SG1 (=1.00).

In the case of B16, the “biacore IC binding” value was 1.04 relative to SG1 (=1.00).

As for B17, the “biacore IC binding” value is 1.82 relative to SG1 (=1.00).

B18: the “biacore IC binding” value is 1.46 relative to SG1 (=1.00).

As for B19, the “biacore IC binding” value is 1.3 relative to SG1 (=1.00).

Turning to B20, the “biacore IC binding” value is 1.18 relative to SG1 (=1.00).

On to B21, for which the “biacore IC binding” value is 1.24 relative to SG1 (=1.00).

Turning to B22, the “biacore IC binding” value was 1.28 relative to SG1 (=1.00).

As to B23, the “biacore IC binding” value was 1.43 relative to SG1 (=1.00).

Consider B24, for which the “biacore IC binding” value is 1.28 relative to SG1 (=1.00).

Take B25: the “biacore IC binding” value was 0.88 relative to SG1 (=1.00).

For B26, the “biacore IC binding” value was 1.98 relative to SG1 (=1.00).

Consider B27, for which the “biacore IC binding” value was 1.09 relative to SG1 (=1.00).

In the case of B28, the “biacore IC binding” value was 1.38 relative to SG1 (=1.00).

With B29, the “biacore IC binding” value was 1.19 relative to SG1 (=1.00).

As to B30, the “biacore IC binding” value is 0.98 relative to SG1 (=1.00).

On to B31, for which the “biacore IC binding” value was 1.49 relative to SG1 (=1.00).

With B32, the “biacore IC binding” value was 1.32 relative to SG1 (=1.00).

On to B33, for which the “biacore IC binding” value was 1.05 relative to SG1 (=1.00).

As to B34, the “biacore IC binding” value was 1.33 relative to SG1 (=1.00).
